Data taken from the Human Domainome abundance scans (Beltran et al. 2025).
± gives the uncertainty stated by the source.

B1: Chromodomain-helicase-DNA-binding protein 3, residues 374 to 426; numbered along this chain, Q12873 (parent)
chain: YETDHQDYCEVCQQGGEIILCDTCPRAYHLVCLDPELDRAPEGKWSCPHCEKE

Variants of: B1
Assay: abundance fitness (aPCA) (normalised: wild type 0, dead -1); higher = more abundant; growth selection in yeast, the domain comes from the species named
Details: Homo sapiens

Variant	abundance fitness
H49W	-0.234 ± 0.14
H49L	-0.128 ± 0.11
H49P	-0.334 ± 0.24
H49N	0.217 ± 0.29
H49C	-0.456 ± 0.22
H49E	-0.062 ± 0.17
H49M	-0.797 ± 0.45
H49D	-0.185 ± 0.15
H49V	0.126 ± 0.12
H49Y	-0.32 ± 0.23
H49F	-0.244 ± 0.33
H49Q	-0.034 ± 0.27
H49T	-0.011 ± 0.23
H49K	-0.127 ± 0.2
W45R	-0.204 ± 0.1
W45I	-0.221 ± 0.17
W45Q	0.19 ± 0.15
W45H	-0.101 ± 0.18
W45G	-0.312 ± 0.1
W45S	-0.224 ± 0.12
W45T	-0.143 ± 0.17

Variant	abundance fitness
W45A	-0.037 ± 0.16
W45F	0.158 ± 0.17
W45N	0.035 ± 0.19
W45L	-0.218 ± 0.1
W45E	-0.099 ± 0.15
W45K	-0.072 ± 0.16
W45Y	0.171 ± 0.15
W45C	-0.182 ± 0.17
W45M	-0.268 ± 0.16
D38T	-0.169 ± 0.21
D38Q	-0.326 ± 0.19
D38R	-0.352 ± 0.13
D38Y	-0.522 ± 0.28
D38L	-0.216 ± 0.11
D38V	0.011 ± 0.12
D38P	-0.129 ± 0.15
D38S	-0.09 ± 0.13
D38W	-0.319 ± 0.18
D38G	-0.142 ± 0.15
D38H	0.066 ± 0.43
D38M	-0.416 ± 0.18

Variant	abundance fitness
D38F	-0.082 ± 0.22
D38N	-0.552 ± 0.16
D38K	-0.518 ± 0.24
D38A	-0.035 ± 0.15
D38C	-0.259 ± 0.19
L37N	-0.189 ± 0.24
L37F	-0.426 ± 0.16
L37P	-0.154 ± 0.12
L37S	-0.295 ± 0.1
L37I	-0.191 ± 0.24
L37V	-0.143 ± 0.12
L37Q	-0.21 ± 0.16
L37Y	0.073 ± 0.15
L37D	-0.228 ± 0.17
L37W	-0.298 ± 0.2
L37R	-0.094 ± 0.11
L37E	-0.732 ± 0.28
L37T	-0.275 ± 0.14
L37K	-0.116 ± 0.18
L37H	-0.037 ± 0.17
L37C	-0.142 ± 0.14

Variant	abundance fitness
L37G	-0.108 ± 0.1
K52E	-0.308 ± 0.22
K52D	-0.413 ± 0.24
K52A	-0.264 ± 0.14
K52G	-0.137 ± 0.1
C50K	-0.923 ± 0.23
C50P	-0.424 ± 0.16
C50Y	-0.791 ± 0.15
C50N	-0.664 ± 0.38
C50D	-0.176 ± 0.26
C50S	-0.66 ± 0.14
C50H	-0.291 ± 0.33
C50F	-0.682 ± 0.31
C50L	-0.468 ± 0.11
C50E	-0.547 ± 0.16
C50V	-0.598 ± 0.12
C50G	-0.383 ± 0.12
C50W	-0.565 ± 0.13
C50I	-0.564 ± 0.28
C50Q	-0.57 ± 0.22
C50A	-0.417 ± 0.13
